This is an account of results in US20180125892A1 (published 2018).

Positions count from the first letter of the chain named.

Sequences and labels used below:
T1: human CD20 (human, UniProt P11836 1-297)
T1 construct: whole, on cells; cell-surface antigen; also called MS4A1
T1 sequence (looked up): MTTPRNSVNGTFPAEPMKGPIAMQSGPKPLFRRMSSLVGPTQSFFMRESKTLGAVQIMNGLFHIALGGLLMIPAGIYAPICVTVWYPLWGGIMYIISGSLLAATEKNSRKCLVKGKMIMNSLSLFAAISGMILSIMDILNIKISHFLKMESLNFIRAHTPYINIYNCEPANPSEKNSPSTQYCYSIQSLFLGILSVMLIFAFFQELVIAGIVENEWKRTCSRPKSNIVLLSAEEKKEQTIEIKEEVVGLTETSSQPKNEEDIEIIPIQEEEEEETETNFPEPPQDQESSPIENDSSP

B1: CD20-C3H2 CAR (other)
chain: QVQLVQSGAEVKKPGASVKVSCKASGYTFTNYNLHWVRQAPGQGLEWMGAIYPGNYDTSYNQKFKGRVTMTADKSTSTAYMELSSLRSEDTAVYYCARVDFGHSRYWYFDVWGQGTTVTVSSGGGGSGGGGSGGGGSGGGGSDIQLTQSPSFLSASVGDRVTITCRATSSVSSMNWYQQKPGKAPKPLIHATSNLASGVPSRFSGSGSGTEYTLTISSLQPEDFATYYCQQWTFNPPTFGQGTKLEIKTTTPAPRPPTPAPTIASQPLSLRPEACRPAAGGAVHTRGLDFACDIYIWAPLAGTCGVLLLSLVITLYCKRGRKKLLYIFKQPFMRPVQTTQEEDGCSCRFPEEEEGGCELRVKFSRSADAPAYQQGQNQLYNELNLGRREEYDVLDKRRGRDPEMGGKPRRKNPQEGLYNELQKDKMAEAYSEIGMKGERRRGKGHDGLYQGLSTATKDTYDALHMQALPPR
notes: CAR on cell surface; residues 1-21 = signal peptide
B2: CD20-C2H3 CAR (other)
chain: QVQLVQSGAEVKKPGASVKVSCKASGYTFTNYWMHWVRQAPGQGLEWMGFITPTTGYPEYNQKFKDRVTMTADKSTSTAYMELSSLRSEDTAVYYCARRKVGKGVYYALDYWGQGTTVTVSSGGGGSGGGGSGGGGSGGGGSAIRMTQSPFSLSASVGDRVTITCRASGNIHNYLAWYQQKPAKAPKLFIYNTKTLADGVPSRFSGSGSGTDYTLTISSLQPEDFATYYCQHFWSSPWTFGGGTKVEIKTTTPAPRPPTPAPTIASQPLSLRPEACRPAAGGAVHTRGLDFACDIYIWAPLAGTCGVLLLSLVITLYCKRGRKKLLYIFKQPFMRPVQTTQEEDGCSCRFPEEEEGGCELRVKFSRSADAPAYQQGQNQLYNELNLGRREEYDVLDKRRGRDPEMGGKPRRKNPQEGLYNELQKDKMAEAYSEIGMKGERRRGKGHDGLYQGLSTATKDTYDALHMQALPPR
notes: as for B1
B3: CD20-C2H4 CAR (other)
chain: B2 chain with A16S, M70I
notes: as for B1
B4: CD20-C3H1 CAR (other)
chain: QVQLVQSGAEVKKPGASVKVSCKASGYTFTNYNLHWVRQAPGQGLEWMGAIYPGNYDTSYNQKFKGRVTMTADKSTSTAYMELSSLRSEDTAVYYCARVDFGHSRYWYFDVWGQGTTVTVSSGGGGSGGGGSGGGGSGGGGSEIVLTQSPATLSLSPGERATLSCRATSSVSSMNWYQQKPGQAPRPLIHATSNLASGIPARFSGSGSGTDYTLTISSLEPEDAAVYYCQQWTFNPPTFGQGTKLEIKTTTPAPRPPTPAPTIASQPLSLRPEACRPAAGGAVHTRGLDFACDIYIWAPLAGTCGVLLLSLVITLYCKRGRKKLLYIFKQPFMRPVQTTQEEDGCSCRFPEEEEGGCELRVKFSRSADAPAYQQGQNQLYNELNLGRREEYDVLDKRRGRDPEMGGKPRRKNPQEGLYNELQKDKMAEAYSEIGMKGERRRGKGHDGLYQGLSTATKDTYDALHMQALPPR
notes: as for B1

This assay concerns the target T1, human CD20. In words: worded conclusion from JNL NFAT-luciferase reporter co-culture with CD20-positive cell lines. The source says: To evaluate the functional ability of CD20 CARs to activate JNL cells, they were co-cultured with target cancer cells to read out their activation by quantifying luciferase expression. The humanized scFv-based CARs CD20-C2H1, -C2H2, -C2H3, -C2H4, -C3H1, -C3H2, -C3H3, -C3H4, -C5H1, -C5H2, -C5H3, -C5H4, -C8H1, -C8H2, -C8H3, and -C8H4, were compared to CD20-8aBBz and CD20-3, -3m, -3J, -3H5k3, and -3H5k1. The control CARs CD20-3 and CD20-8aBBz were used in all assays to compare assay variation and/or act as a control. The EGFRvIII CAR T cells (CAR 2174, Johnson et al., Science Translational Medicine 2015) were used as non-targeting control.
JNL CART cells were co-cultured with the Burkitt's lymphoma line Raji (RRID: CVCL_0511) and the diffuse large B cell lymphoma (DLBCL) lines Pfeiffer (RRID: CVCL_3326), HBL-1 (RRID: CVCL_4213) and TMD8 (RRID: CVCL_A442); K562 (RRID: CVCL_0004), a chronic myelogenous leukemia (CML) cell line, served as CD20-negative control. Co-cultures were set up in 384-well plates at effector-to-target (E:T) ratios of 4:1, 2:1, 1:1 and 0.5:1 and incubated for 24 h, after which the expression of luciferase by the activated JNL CAR T cells was quantified by britelite plus Reporter Gene Assay System (PerkinElmer, Waltham, Mass.). The amount of light emitted from each well (Luminescence) was a direct read-out of JNL activation by the respective CAR. […] Some of the humanized scFvs, which were fused to the transmembrane and signaling domains of the CARs, seem to have improved the efficacy of CARs to activate JNL T cells. These were CD20-C2H1, -C2H3, -C5H1, -C5H2, and -C8H3.
Background: A reporter such as luciferase makes a cellular process visible.
With B1, the binding result was “binds”.
In the case of B2 it was “binds”.
Consider B3, for which the binding result is on record as “binds”.
For B4, the binding result is “binds”.
